Here are results for one protein from article PMC5768801, “The PII signaling protein from red algae represents an evolutionary link between cyanobacterial and Chloroplastida PII proteins” (Scientific Reports, 2018).

Substrate in the series: CC(=O)N[C@@H](CCC(=O)O)C(=O)O
The experiment in a line: purified protein, by the assay type. The settings on record: pH 7.5.

In general, Km refers to the substrate concentration at which the rate is half of its maximum.

B1: ScNAGK (Synechocystis sp. PCC 6803 substr. Kazusa) (protein)
chain: MSSTQDYIGEEAATRVKILSEALPYIQHFAGRTVVVKYGGAAMKDSNLKDKVIRDIVFMASVGIRPVVVHGGGPEINTWLDKVGIEPQFKDGLRVTDAATMDIVEMVLVGRVNKELVNLINQAGGKAVGLCGKDGQLMTARTMTNKDVGFVGEVSSVDARVVETLVKSGYIPVISSVAADEFGQAHNINADTCAGELAAALGAEKLILLTDTRGILRDYKDPSTLIHKLDIQQARELIGSGIVAGGMIPKVTCCVRSLAQGVRAAHILDGRLPHALLLEVFTDLGIGSMIVASGYDL
As for B1, the Km was determined as 16.23 mM.
